Holding throughout (type): biochemical
Series [1] is described as follows: pH and temperature dependence, stability and activity of recombinant acidic enzymes. Here is the method:
The acidic enzymes according to the invention were expressed in E. coli using the genomiccoding sequence for the respective enzyme from Ferroplasma acidiphilum, which are described in detail below. For enzymatic conversions, reaction conditions were in 100 mM sodium acetate buffer, 100 mM citrate buffer, 100 mM HEPES buffer for 2 minutes at 30° C., using p-nitrophenol propionate as the substrate for esterase, starch in the case of glycosidases, and HindIII digested λ DNA for ligase.
The activity was assayed using p-nitrophenol propionate as a substrate for esterase, starch for αGluFA and GlyFA1, GlyFA2, and HindIII digested λ DNA for LigFA.
The acidic enzymes according to the invention in vitro show similar elevated reaction temperatures. Substrates were as described for FIG. 2 above.
An overview of catalytic and molecular properties of acidic enzymes that were heterologously expressed in E. coli is given in the following Table III: […]

Series [2] is described as follows: Fe2+ content (ICP-MS) and Fe2+ dependence of activity, dialysis against EDTA. Particulars: relative to wild type = 100; after dialysis against 1 mM EDTA; 100 mM sodium citrate, 10 mM FeCl2. The procedure:
The UV-VIS absorption spectra of purified acidic enzymes are shown in FIG. 4, wherein the uninterrupted lines refer to Fe^2+ containing enzymes and the interrupted lines refer to enzymes after dialysis against EDTA containing buffer. The λ-max values found at ca. 572 nm correlate with the Fe^2+ content, i.e. disappear after incubation with EDTA or DTT for 24 h. ICP-MS analysis confirmed the presence of 0.82±0.10 mol Fe in EstFA, 0.34±0.08 mol Fe in αGluFA, […] and 0.63±0.09 mol Fe in LigFA.
In FIG. 5, relative activities of acidic enzymes with varying content of Fe^2+ are shown. For analysis, purified enzymes were incubated in 1 mM EDTA. At time intervals indicated, two aliquots were removed, one was used for hydrolysis of respective substrates, the other for ICP-MS analysis of Fe. For relative activities, activities before incubation with EDTA were used as 100% values.
When further investigating the dependence of the acidic enzymes according to the invention on Fe^2+, relative activity for EstFA, αGluFA and LigFA were investigated for their natural Fe^2+ content, e.g. wild-type, which was set to 100%, in comparison to the activity after dialysis against a 1 mM EDTA containing buffer.

For the next series, the system named is TOP 2 fragmented DNA. The series is described as follows: Religation of topoisomerase 2 induced DNA breaks. Particulars: LigFA pH 4.0 to 2.0; T4 ligase acidic pH values; FIG. 9. The procedure:
For a comparison of the religation activities of acidic LigFA to T4 ligase on DNA containing breaks caused by topoisomerase 2 (TOP 2), ligation activities were determined in vitro at various pH values. The results are shown in the non-denaturing agarose gel of FIG. 9.
DNA was incubated with TOP 2 to induce DNA damage. At pH 5.0, TOP 2 caused DNA breaks (lane 2) but not at pH 3.0 (lane 3).

Series [3] relates to 5′ phosphorylated oligonucleotides; Sau3A digested λ DNA. The series is described as follows: DNA ligation using LigFA. Particulars: 40° C. Here is the method: For DNA ligation, double-stranded DNA fragments, each comprising a complementary 3′ overhang which were phosphorylated in 5′ can be ligated in a total volume of 20 μL ligation buffer (100 mM Na-citrate, pH 3.0, 10 μM Fe^2+, 0.01-0.1 mM ATP, optionally 0.5 mM dithiothreitol), 0.1-5 micrograms DNA and 1 to 20 nmoles ligase. The reaction conditions are 40° C. for 5 minutes to 2 hours, the reaction can be stopped by the addition of stop buffer 98% (vol/vol) formamide, 10 mM EDTA, 0.05% bromophenol blue, 0.05% xylene cyanol, 0.2% SDS), followed by heating to 95° C. for 5 minutes or, alternatively, by adding stop/loading buffer (30% sucrose, 150 mM EDTA, 0.15% SDS, 0.03% bromophenol blue), and heating to 90° C. for 2 minutes.
Oligonucleotides were phosphorylated in 5′.
Reactions were carried out in different buffers: HEPES, pH 7.0 (lane 1), HEPES, pH 6.0 (lane 2), sodium acetate, pH 5.0 (lane 3), sodium acetate, pH 4.0 (lane 4), sodium citrate, pH 3.0 to 0.5 (lanes 5 to 9, respectively). For detection of ligation, gel electrophoresis on a 10% denaturing polyacrylamide gel containing 7 M urea in TBE buffer (90 mM Tris-borate, 2.5 mM EDTA), staining with ethidium bromide. A densitometric reproduction of the gel region containing 60 base fragments is represented in FIG. 7. […]

B1: LigFA: DNA ligase obtainable from Ferroplasma acidiphilum, 595 amino acids, Seq. ID No. 3, Fe2+ dependent (protein, listed as Ferroplasma acidiphilum)
chain: MHLMNMVDPDFNSLIELSKSAGDMTKIEPAMLRNFLDESSLSSRGAPVEIKEIKDYKIKLDGRTLNARMYDDNNAKSAILYYHGGGFLFGNIETYDNYCRFLAKESGVKIISIEYRLAPEHKFPDAFNDAYDSFHYIAKKKKDFGIEGRIGVAGDSAGANLAAALCLKCRDGKTEMPAVQVLFYPSLAPDNFSRSFIEYSDNYVLTGKMIRYFGNMYSKNMQDLINPYFSPLVADDFSNLPPAIMVTNEYDPLRDPEETYVKKLREAGVRAVGIRGIGMIHGSATDFEVSDGARNIVKMVARIIPDYL
modifications: CDS (1)..(927) est FA
notes: ID No. 3, Fe2+ dependent
On to B1, for which the “enzymatic stability at elevated temperatures” value in series [1] (FIG. 2, LigFA pH 3.0, EstFA and αGluFA pH 2.0 at 40 and 50° C., GlyFA1 and GlyFA2 pH 4.0 at 40° C.) is “good stability”. The Optimum temperature in series [1] (measured at optimum pH) turned out to be 40 °C. In addition, the “Optimum pH” value in series [1] (measured at optimum temperature) is 1.5-3.0. In addition, the “activity, +EDTA” value in series [2] came out at 0.15%. Moreover, the “religation of TOP 2 fragmented DNA at acidic pH” value with TOP 2 fragmented DNA is given as “clearly demonstrated”. Besides, the “ligation of Sau3A digested λ DNA” value in series [3] (20 nM LigFA, 2 hours) is recorded as “demonstrates ligation”. Further, the “ligation of two oligonucleotides (35 and 25 bases) on a 70 base oligonucleotide” value in series [3] (20 nM ligFA, 5 minutes) was “ligation was obtained”.

The values are drawn from patent US8003357B2, “Acidophilic enzymes” (Helmholtz-Zentrum Fuer Infektionsforschung GmbH, priority 2005, dated 2011).
